The values below are quoted from earlier work in paper PMC7228754.

The data set has as its target Rab1b (Homo sapiens) (UniProt Q9H0U4).

Chain of AnkX (Q5ZXN6 whole entry): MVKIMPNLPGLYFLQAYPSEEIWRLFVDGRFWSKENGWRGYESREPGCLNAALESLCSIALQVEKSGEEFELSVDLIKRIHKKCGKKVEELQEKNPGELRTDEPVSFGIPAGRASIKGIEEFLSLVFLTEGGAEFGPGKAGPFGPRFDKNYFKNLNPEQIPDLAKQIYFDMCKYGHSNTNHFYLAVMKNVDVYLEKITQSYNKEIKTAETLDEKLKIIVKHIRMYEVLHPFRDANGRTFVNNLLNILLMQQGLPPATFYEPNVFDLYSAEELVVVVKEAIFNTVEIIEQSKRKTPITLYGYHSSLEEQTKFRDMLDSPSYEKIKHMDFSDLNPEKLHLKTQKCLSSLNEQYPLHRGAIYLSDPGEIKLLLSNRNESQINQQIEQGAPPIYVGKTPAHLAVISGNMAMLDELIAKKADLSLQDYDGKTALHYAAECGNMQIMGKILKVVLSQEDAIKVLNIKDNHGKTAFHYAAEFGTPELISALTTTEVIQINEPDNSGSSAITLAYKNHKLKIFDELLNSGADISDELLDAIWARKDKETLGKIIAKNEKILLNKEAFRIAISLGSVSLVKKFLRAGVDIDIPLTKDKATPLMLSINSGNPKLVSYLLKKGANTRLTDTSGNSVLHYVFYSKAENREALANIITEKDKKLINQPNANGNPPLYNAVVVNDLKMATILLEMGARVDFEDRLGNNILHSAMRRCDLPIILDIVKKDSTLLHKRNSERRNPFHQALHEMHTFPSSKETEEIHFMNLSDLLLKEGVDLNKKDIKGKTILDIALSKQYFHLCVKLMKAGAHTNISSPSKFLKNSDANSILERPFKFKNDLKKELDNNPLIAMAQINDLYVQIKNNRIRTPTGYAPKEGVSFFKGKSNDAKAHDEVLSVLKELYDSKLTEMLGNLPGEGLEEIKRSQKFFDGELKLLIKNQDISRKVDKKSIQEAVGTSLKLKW
Chain of Rab1b (Homo sapiens) (Q9H0U4 whole entry): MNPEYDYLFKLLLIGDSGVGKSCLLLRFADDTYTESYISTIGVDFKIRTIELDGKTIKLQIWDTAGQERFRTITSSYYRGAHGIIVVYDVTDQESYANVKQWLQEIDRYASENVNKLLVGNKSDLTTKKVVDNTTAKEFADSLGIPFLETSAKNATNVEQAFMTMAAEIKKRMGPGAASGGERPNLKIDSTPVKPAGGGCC

As for AnkX (from UniProt Q5ZXN6), the Kd – broadly, the constant that tells how readily two partners part at equilibrium – is 122 µM.
